In FireProtDB (doi:10.1021/bi00200a042):

Conditions: Saccharomyces cerevisiae (strain ATCC 204508 / S288c); pH 7; 25 °C; GdnHCl; Fluorescence; Potassium phosphate 0.1 M; reversible: yes; structure 1YCC

Sequence of Cytochrome c isoform 1 R44A|N58I|C108A, P00044 R44A N58I C108A (P00044 whole entry R44A/N58I/C108A, canonical isoform): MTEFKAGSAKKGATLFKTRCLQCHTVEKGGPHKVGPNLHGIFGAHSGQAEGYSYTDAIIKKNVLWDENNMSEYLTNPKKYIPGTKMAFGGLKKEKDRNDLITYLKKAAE
Sequence of Cytochrome c isoform 1 C108A, P00044 (P00044 whole entry C108A, canonical isoform): as the sequence (P00044 whole entry R44A/N58I/C108A, canonical isoform) above, with A44R, I58N counted along it
Sequence of Cytochrome c isoform 1 N58I|C108A, P00044 N58I C108A (P00044 whole entry N58I/C108A, canonical isoform): as the sequence (P00044 whole entry R44A/N58I/C108A, canonical isoform) above, with A44R counted along it
Sequence of Cytochrome c isoform 1 R44A|N58I|F88S|C108A, P00044 R44A N58I F88S C108A (P00044 whole entry R44A/N58I/F88S/C108A, canonical isoform): as the sequence (P00044 whole entry R44A/N58I/C108A, canonical isoform) above, with F88S counted along it
Sequence of Cytochrome c isoform 1 R44A|C108A, P00044 R44A C108A (P00044 whole entry R44A/C108A, canonical isoform): as the sequence (P00044 whole entry R44A/N58I/C108A, canonical isoform) above, with I58N counted along it
Sequence of Cytochrome c isoform 1 F88S|C108A, P00044 F88S C108A (P00044 whole entry F88S/C108A, canonical isoform): as the sequence (P00044 whole entry R44A/N58I/C108A, canonical isoform) above, with A44R, I58N, F88S counted along it
Sequence of Cytochrome c isoform 1 N58I|F88S|C108A, P00044 N58I F88S C108A (P00044 whole entry N58I/F88S/C108A, canonical isoform): as the sequence (P00044 whole entry R44A/N58I/C108A, canonical isoform) above, with A44R, F88S counted along it

Substance	denaturant m value [kcal/mol/M]	denaturant midpoint (higher = more stable) [M]	unfolding free energy [kJ/mol]
Cytochrome c isoform 1 C108A, P00044	3.9	1.3	20.9
Cytochrome c isoform 1 F88S|C108A, P00044 F88S C108A	3.8	0.9	14.6
Cytochrome c isoform 1 N58I|C108A, P00044 N58I C108A	4.2	2.1	37.7
Cytochrome c isoform 1 N58I|F88S|C108A, P00044 N58I F88S C108A	3.2	1.7	23
Cytochrome c isoform 1 R44A|C108A, P00044 R44A C108A	3	1.4	15.9
Cytochrome c isoform 1 R44A|N58I|C108A, P00044 R44A N58I C108A	3.8	2.1	34.3
Cytochrome c isoform 1 R44A|N58I|F88S|C108A, P00044 R44A N58I F88S C108A	3.6	1.7	25.9
